Source: publication PMC5332220 (Biochemistry, 2016)

What was measured:
SspB_milli [1] = target: T1, SspB_milli (UniProt P45206 1-150, A58V); assay: fluorescence polarisation
SspB_milli [2] = target: T1, SspB_milli; assay: fluorescence polarisation; remark: listed apart in the source

B1: improved Light Inducible Dimer (iLID) (designed binder)
chain: MRGSHHHHHHGSLATTLERIEKNFVITDPRLPDNPIIFASDSFLQLTEYSREEILGRNCRFLQGPETDRATVRKIRDAIDNQTEVTVQLINYTKSGKKFWNVFHLQPMRDYKGDVQYFIGVQLDGTERLHGAAEREAVCLIKKTAFQIAEAANDENYF
modifications: flavin mononucleotide (FMN) cofactor; in the lit state a metastable covalent bond of FMN with Cys450
- Kd (SspB_milli [1]): 56 ± 6 µM
- fold weaker than the lit state (SspB_milli [2]): ≥ 25 fold
